Usually stoichiometry N stands for the number of molecules, sites or subunits per partner or assembly.

We go through 1 molecule from publication doi:10.1101/2021.02.28.432901.

For the experiment, the target named is T1, SWELL1 (LRRC8a, Leucine-Rich Repeat Containing Protein 8a), Q80WG5.
T1 chain: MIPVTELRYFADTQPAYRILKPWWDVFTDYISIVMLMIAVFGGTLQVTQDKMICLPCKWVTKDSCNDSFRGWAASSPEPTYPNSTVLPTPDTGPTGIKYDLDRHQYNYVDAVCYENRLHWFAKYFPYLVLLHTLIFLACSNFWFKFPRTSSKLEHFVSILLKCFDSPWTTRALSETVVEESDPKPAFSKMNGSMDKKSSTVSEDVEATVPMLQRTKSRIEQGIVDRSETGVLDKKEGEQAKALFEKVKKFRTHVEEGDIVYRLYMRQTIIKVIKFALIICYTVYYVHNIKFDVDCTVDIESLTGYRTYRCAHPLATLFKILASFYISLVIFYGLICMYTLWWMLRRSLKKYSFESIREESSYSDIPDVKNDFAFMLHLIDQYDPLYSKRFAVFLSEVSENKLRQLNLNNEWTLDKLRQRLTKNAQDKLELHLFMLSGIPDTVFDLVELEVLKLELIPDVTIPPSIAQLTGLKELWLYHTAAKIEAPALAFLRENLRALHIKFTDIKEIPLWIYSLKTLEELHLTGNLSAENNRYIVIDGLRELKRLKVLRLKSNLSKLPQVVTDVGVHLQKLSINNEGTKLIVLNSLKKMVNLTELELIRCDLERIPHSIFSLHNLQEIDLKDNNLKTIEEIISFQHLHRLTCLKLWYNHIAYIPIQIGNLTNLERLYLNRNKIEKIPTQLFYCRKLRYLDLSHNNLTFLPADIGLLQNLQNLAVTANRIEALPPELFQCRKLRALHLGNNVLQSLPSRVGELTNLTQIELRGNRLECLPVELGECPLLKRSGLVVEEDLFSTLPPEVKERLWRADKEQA
Nature of the experiment: cryo-EM structure. The note with it: remark: other sources report otherwise.

B1: SWELL1 (LRRC8a, Leucine-Rich Repeat Containing Protein 8a), Q80WG5 1-810 (natural protein)
chain: MIPVTELRYFADTQPAYRILKPWWDVFTDYISIVMLMIAVFGGTLQVTQDKMICLPCKWVTKDSCNDSFRGWAASSPEPTYPNSTVLPTPDTGPTGIKYDLDRHQYNYVDAVCYENRLHWFAKYFPYLVLLHTLIFLACSNFWFKFPRTSSKLEHFVSILLKCFDSPWTTRALSETVVEESDPKPAFSKMNGSMDKKSSTVSEDVEATVPMLQRTKSRIEQGIVDRSETGVLDKKEGEQAKALFEKVKKFRTHVEEGDIVYRLYMRQTIIKVIKFALIICYTVYYVHNIKFDVDCTVDIESLTGYRTYRCAHPLATLFKILASFYISLVIFYGLICMYTLWWMLRRSLKKYSFESIREESSYSDIPDVKNDFAFMLHLIDQYDPLYSKRFAVFLSEVSENKLRQLNLNNEWTLDKLRQRLTKNAQDKLELHLFMLSGIPDTVFDLVELEVLKLELIPDVTIPPSIAQLTGLKELWLYHTAAKIEAPALAFLRENLRALHIKFTDIKEIPLWIYSLKTLEELHLTGNLSAENNRYIVIDGLRELKRLKVLRLKSNLSKLPQVVTDVGVHLQKLSINNEGTKLIVLNSLKKMVNLTELELIRCDLERIPHSIFSLHNLQEIDLKDNNLKTIEEIISFQHLHRLTCLKLWYNHIAYIPIQIGNLTNLERLYLNRNKIEKIPTQLFYCRKLRYLDLSHNNLTFLPADIGLLQNLQNLAVTANRIEALPPELFQCRKLRALHLGNNVLQSLPSRVGELTNLTQIELRGNRLECLPVELGECPLLKRSGLVVEEDLFSTLPPEVKERLWRADKEQA
For B1, the stoichiometry N was found to be 6.
